From patent US11780901B2, “Analogues of parathyroid hormone (1-34) that function as agonists of the parathyroid hormone receptor-1 and display modified activity profiles” (Wisconsin Alumni Research Foundation, priority 2013, dated 2023)

Legend:
rat PTHR-1 (GR35 cells) = molecular target: T1, rat PTHR-1 (GR35 cells) (Rattus norvegicus, UniProt P25961); assay: Washout assay of Gs-biased PTHR1 agonists (cAMP response after washout); assay type: cell-based; conditions: compared with PTH (1-34)
T1 construct: expressed in transfected cells
T1 sequence (P25961 27-591): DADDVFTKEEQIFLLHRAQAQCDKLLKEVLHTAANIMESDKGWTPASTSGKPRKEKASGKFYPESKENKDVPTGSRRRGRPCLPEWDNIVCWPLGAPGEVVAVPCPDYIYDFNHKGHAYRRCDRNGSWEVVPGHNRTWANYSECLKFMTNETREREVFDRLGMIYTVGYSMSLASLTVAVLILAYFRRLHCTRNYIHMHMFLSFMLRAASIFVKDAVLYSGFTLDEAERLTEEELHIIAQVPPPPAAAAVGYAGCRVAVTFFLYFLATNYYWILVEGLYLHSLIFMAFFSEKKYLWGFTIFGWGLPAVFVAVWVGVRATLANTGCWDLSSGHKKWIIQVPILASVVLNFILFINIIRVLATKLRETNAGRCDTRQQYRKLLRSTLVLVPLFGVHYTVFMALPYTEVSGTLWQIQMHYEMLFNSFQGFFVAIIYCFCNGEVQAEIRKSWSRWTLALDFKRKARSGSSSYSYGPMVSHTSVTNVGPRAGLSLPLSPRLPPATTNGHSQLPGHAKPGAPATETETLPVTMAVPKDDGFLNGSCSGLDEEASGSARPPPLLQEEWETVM
Procedure: These “washout assays”^7,8,21 assess the ability of the peptides to form stable ligand-receptor complexes capable of stimulating prolonged cAMP responses. The ability of a peptide to elicit prolonged cAMP responses via PTHR-1 following washout typically correlates with the affinity of that peptide for the R^0 state.^7,8,21
HEK293 cell monolayers expressing rat PTHR-1 (GR35 cells) were treated with ligand in for 14 minutes. This buffer was then discarded, and the cell monolayer was rinsed (2×). Buffer containing luciferin was introduced for 120 minutes. Luminescence response was recorded before and after washout, with luminescence readings recorded every 2 minutes. The area under the curve (AUC) for luminescence response curve was determined using GraphPad Prism.
Data were processed by using the Microsoft Excel and GraphPad Prism 4.0 software packages. Data from binding and cAMP dose—response assays were analyzed using a sigmoidal dose—response model with variable slope. Washout responses were assessed by quantifying the area under the luminescence response curve (AUC) following washout. Post-washout AUC was normalized by dividing the post-washout AUC by the pre-washout AUC. Paired data sets were statistically compared by using Student's t test (two-tailed) assuming unequal variances for the two sets.

PTHR1 [1] = molecular target: T2, PTHR1 (Homo sapiens, UniProt Q03431); assay: Functional selectivity (Gs activation/cAMP production vs βarr recruitment); assay type: cell-based; set-up: expressed in transfected cells; host or cells: cells stably expressing PTHR1; conditions: cAMP activation vs βarr1 and βarr2 recruitment, relative to PTH (1-34)
T2 sequence (Q03431 27-593): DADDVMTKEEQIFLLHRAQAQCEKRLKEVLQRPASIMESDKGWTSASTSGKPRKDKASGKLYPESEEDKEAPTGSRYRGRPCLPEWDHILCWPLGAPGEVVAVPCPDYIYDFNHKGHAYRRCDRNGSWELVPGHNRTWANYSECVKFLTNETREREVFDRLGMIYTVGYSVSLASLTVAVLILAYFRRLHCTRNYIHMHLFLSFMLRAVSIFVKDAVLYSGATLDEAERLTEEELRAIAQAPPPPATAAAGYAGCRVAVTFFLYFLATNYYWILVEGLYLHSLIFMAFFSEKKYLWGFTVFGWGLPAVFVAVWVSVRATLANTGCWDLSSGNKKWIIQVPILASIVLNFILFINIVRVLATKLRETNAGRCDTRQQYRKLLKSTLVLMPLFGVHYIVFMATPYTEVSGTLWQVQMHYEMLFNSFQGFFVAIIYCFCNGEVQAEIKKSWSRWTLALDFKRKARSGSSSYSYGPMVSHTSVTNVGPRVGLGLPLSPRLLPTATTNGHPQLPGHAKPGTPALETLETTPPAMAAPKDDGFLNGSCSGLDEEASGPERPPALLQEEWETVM
Procedure: More specifically, the initial studies that yielded the compounds disclosed and claimed herein were conducted to determine whether there is a correlation between βarr recruitment and receptor residence time of a PTHR1 agonist. The initial studies were thus conducted in two steps. First, the functional selectivity (Gs activation as indicated by cAMP production vs. βarr recruitment) of several PTHR1 agonists that display substantial differences in signaling duration were evaluated. Second, novel PTHR1 agonists were designed that have high functional selectivity and evaluated the signaling duration of these biased agonists.
(§1) The functional selectivity of BA058 is more significant than that of PTHrP. […] LA-PTH is a long-acting PTH analog. […] The middle panels in FIG. 2 are graphs depicting, from left-to-right: βarr1 and βarr2 recruitment, presented as normalized BRET signals (bioluminescence resonance energy transfer) as a function of the log of the peptide concentration, and cAmp activation presented as normalized RLU signals (relative light units) as a function of the log of the peptide concentration. Red=PTH. Orange=LA=LA−PTH. Blue=BA058. Green=PTHrP. (BRET assays are well known and suitable kits are available commercially. See, for example, Promega's “NanoBRET” kits, catalogs nos. N1821 and N1811; Promega Corporation, Fitchburg, Wis.). The table at the bottom of FIG. 2 presents the pEC50 and Emax values for the […] and βarr2 recruitment and cAMP activation. FIG. 3 presents the data for the bias of the activity—either toward βarr recruitment or cAMP activation.
Incorporating (R*)-β^2Leu/(D)-Leu at the 7th position or (R*)-β^2Nle at the 8th position leads to high Gs-biased agonism. […] (D)-Nle is poorly tolerated at the 8th position for both cAMP signaling and βarr recruitment. The top panels in FIG. 5 are graphs depicting, from left-to-right: βarr1 and βarr2 recruitment, presented as normalized BRET signals as a function of the log of the peptide concentration, and cAmp activation presented as normalized RLU signals as a function of the log of the peptide concentration. […]

PTHR2 ECL1 chimera = assay: Activation of PTHR2 variant, ECL1 chimera; assay type: cell-based; conditions: 100 nM
Description: (§2) Molecular basis of PTHR1 vs. PTHR2 selectivity. Previous receptor-mutation studies have identified sites within PTHR1 and PTHR2 that play critical roles in determining peptide agonist selectivity.

R^0 state of PTHR1 = molecular target: T3, R^0 state of PTHR1 (Homo sapiens, UniProt Q03431); conditions: relative to PTH (1-34); cited from earlier work
T3 construct: expressed in transfected cells; host or cells: COS-7, transient; membranes
T3 sequence (Q03431 27-593): T2 sequence (Q03431 27-593)

PTHR2 I244L = molecular target: T4, PTHR2 I244L (Homo sapiens, UniProt P49190, I244L); assay: Activation of PTHR2 variant I244L; assay type: cell-based; conditions: 100 nM
T4 construct: expressed in transfected cells
T4 sequence (P49190 25-550 I244L): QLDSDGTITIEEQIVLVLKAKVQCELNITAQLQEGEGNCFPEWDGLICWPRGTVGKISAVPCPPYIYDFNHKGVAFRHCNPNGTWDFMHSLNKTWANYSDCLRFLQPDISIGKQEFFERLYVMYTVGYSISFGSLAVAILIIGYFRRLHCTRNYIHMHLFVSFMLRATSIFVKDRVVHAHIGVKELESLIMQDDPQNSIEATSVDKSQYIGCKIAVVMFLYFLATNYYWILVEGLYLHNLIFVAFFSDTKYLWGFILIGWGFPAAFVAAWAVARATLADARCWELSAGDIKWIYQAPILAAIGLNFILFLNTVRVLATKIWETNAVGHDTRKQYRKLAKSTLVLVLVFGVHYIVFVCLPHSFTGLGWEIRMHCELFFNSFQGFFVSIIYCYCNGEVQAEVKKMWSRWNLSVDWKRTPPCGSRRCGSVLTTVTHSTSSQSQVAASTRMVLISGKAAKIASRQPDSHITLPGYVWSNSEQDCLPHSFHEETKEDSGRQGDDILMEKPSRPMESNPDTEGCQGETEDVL
Description: as §2

PTHR2 [2] = molecular target: T5, PTHR2 (Homo sapiens, UniProt P49190); assay: Antagonism of PTHR2 activation by PTH(1-34)-NH2; assay type: cell-based; set-up: expressed in transfected cells; host or cells: cells stably expressing PTHR2; conditions: FIG. 11
T5 sequence (P49190 25-550): as the sequence (P49190 25-550 I244L) above, with L220I counted along it
Description: Data points represent mean±s.e.m from four independent experiments. Curves were fit to the data using a four-parameter sigmoidal dose-response equation.
See Hoare, S. R. J., Clark, J. A. & Usdin, T. B. Molecular determinants of tuberoinfundibular peptide of 39 residues (TIP39) selectivity for the parathyroid hormone-2 (PTH2) receptor—N-terminal truncation of TIP39 reverses PTH2 receptor/PTH1 receptor binding selectivity. Journal of Biological Chemistry 275, 27274-27283 (2000) and Gardella, T. J., Luck, M. D., Jensen, G. S., Usdin, T. B. & Juppner, H. Converting parathyroid hormone-related peptide (PTHrP) into a potent PTH-2 receptor agonist.

PTHR2 Y318I = molecular target: T6, PTHR2 Y318I (Homo sapiens, UniProt P49190, Y318I); assay: Activation of PTHR2 variant Y318I; assay type: cell-based; conditions: 100 nM
T6 construct: expressed in transfected cells
T6 sequence (P49190 25-550 Y318I): as the sequence (P49190 25-550 I244L) above, with L220I, Y294I counted along it
Description: as §2

PTHR1 [3] = molecular target: T2, PTHR1; assay: Wash-out assay, duration of PTHR1 activation; assay type: cell-based; set-up: expressed in transfected cells; host or cells: cells stably expressing PTHR1; conditions: PTHR1; agonist at ~EC80; PTH(1-34)-NH2 = 100
Description: Duration of activation for PTHR1 and PTHR2. To assess the duration of PTHR1 and PTHR2 activation induced by α/β-peptides 14 and 15, the time course of cAMP production by each receptor was examined after stimulation with an agonist and subsequent washing of the cells to remove unbound peptide (wash-out assay). […] During the initial “ligand-on” phase, cells stably expressing PTHR1 or PTHR2 were stimulated with an agonist concentration corresponding to ˜EC80; the medium contained D-luciferin. […] After the addition of fresh medium containing D-luciferin, the luminescence decay is measured. The area under the “ligand-off” curve (AUC) reflects the duration of signaling, which may be related to residence time of the agonist on the receptor but could have other origins at the molecular level.

PTHR1 [4] = molecular target: T2, PTHR1; set-up: expressed in transfected cells; conditions: previous studies; cited from earlier work
PTHR2 [5] = molecular target: T5, PTHR2; set-up: expressed in transfected cells; conditions: previous studies; cited from earlier work
PTHR1 [6] = molecular target: T2, PTHR1; assay: βarr recruitment (BRET); assay type: cell-based; set-up: expressed in transfected cells; host or cells: cells stably expressing PTHR1; conditions: compared with PTH and LA-PTH
Description: as §1

| Substance | signaling duration after washout (in words) (rat PTHR-1 (GR35 cells)) | signaling bias / functional selectivity (in words) (PTHR1 [1]) | agonist activity at PTHR2 ECL1 chimera relative to wild-type PTHR2 (in words) (PTHR2 ECL1 chimera) | R0 affinity (in words) (R^0 state of PTHR1) | agonist activity at PTHR2 I244L relative to wild-type PTHR2 (in words) (PTHR2 I244L) | antagonism of PTHR2 activation by PTH(1-34)-NH2 (in words) (PTHR2 [2]) | agonist activity at PTHR2 Y318I relative to wild-type PTHR2 (in words) (PTHR2 Y318I) | Normalized ligand-on Emax (PTHR1 [3]) | PTHR1 agonist activity (in words) (PTHR1 [4]) | PTHR2 agonist activity (in words) (PTHR2 [5]) | βarr recruitment efficacy maximum (in words) (PTHR1 [6]) |
| --- | --- | --- | --- | --- | --- | --- | --- | --- | --- | --- | --- |
| Ligand 12: PTH(1-34) analogue with replaced residue at position 8 (character image); highly Gs-biased (SVSEIQLXHNLGKHLNSMERVEWLRKKLQDVHNF; non-natural residue at position 8; MOD_RES (8)..(8) X at position 8 is (R*)-Beta-2-Norleucine.) | more transient signaling than PTH (1-34) | strongly biased toward cAMP activation relative to both βarr1 and βarr2 recruitment |  |  |  |  |  |  |  |  |  |
| PTHrP(1-36)-NH2: parathyroid hormone-related protein fragment, naturally PTHR1-selective agonist |  | biased toward cAMP activation relative to both βarr1 and βarr2 recruitment | much more susceptible to activation | moderate | much more susceptible to activation | antagonistic effect | much more susceptible to activation | 102 ± 1 | potent agonist | very weak agonist | lower efficacy βarr recruitment maximum |
